23 variants from the supplement of paper PMC7125110 can be followed below.

B1: glmS ribozyme (parent)
chain: AUAAAAGCGCCAGAACUACAGAAAUGUAGUUGACGAGGAGGAGGUUUAUCGAAUUUUCGGCGGAUGCCUCCAAA

± gives the standard error. This sample holds only a part of the variants without activity.

Holding throughout (conditions): with glucosamine-6-phosphate
The variants in data set [1] derive from B1. The data set can be described thus: self-cleavage kobs at 40 uM GlcN6P; higher = faster cleavage; RNA array. The method, boiled down: (§1)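 Barcoded ribozyme variants were transcribed in situ on sequenced MiSeq chips by E. coli RNA polymerase. At 37 °C, a hybridised Cy3 probe tracked them while glucosamine-6-phosphate (40 μM to 10 mM) in HEPES/KCl/Mg(OAc)2 buffer flowed in and tiles were imaged over ~14 h. Per-tile medians of signals normalised to baseline and to non-cleaving reference variants were fit to one- or two-exponential decays, giving kobs. kcat and KM came from weighted Michaelis–Menten fits across concentrations.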

Variants of B1 are the subject of data set [2]. The data set can be described thus: self-cleavage kobs at 160 uM GlcN6P; higher = faster cleavage; RNA array. The method, boiled down:
as §1

Variants of B1 are the subject of data set [3]. Briefly: self-cleavage kobs at 640 uM GlcN6P; higher = faster cleavage; RNA array. The procedure, abridged: as §1
Variants of B1 are the subject of data set [4]. The data set can be described thus: self-cleavage kobs at 2500 uM GlcN6P; higher = faster cleavage; RNA array. The procedure, abridged:
as §1

Data set [5] covers variants of B1. Briefly: self-cleavage kobs at 10000 uM GlcN6P; higher = faster cleavage; RNA array. The method, boiled down: as §1

Consider A53U U56C, for which the “self-cleavage kobs at 40 uM GlcN6P” value in the data set with glucosamine-6-phosphate [1] came out at 5.21e-05 ± 8e-06 s⁻¹. Moreover, the “self-cleavage kobs at 160 uM GlcN6P” value with glucosamine-6-phosphate [2] worked out at 0.000101 ± 1.5e-05 s⁻¹. In addition, the “self-cleavage kobs at 640 uM GlcN6P” value with glucosamine-6-phosphate [3] was 0.000782 ± 9.1e-05 s⁻¹. The “self-cleavage kobs at 2500 uM GlcN6P” value with glucosamine-6-phosphate [4] is 0.00118 ± 0.00021 s⁻¹. For the same variant, the “self-cleavage kobs at 10000 uM GlcN6P” value in the data set with glucosamine-6-phosphate [5] was determined as 0.0038 ± 0.00042 s⁻¹.

G13C G60A U65G G66C C71U: the “self-cleavage kobs at 40 uM GlcN6P” value with glucosamine-6-phosphate [1] was < 1e-05 s⁻¹. Also, the “self-cleavage kobs at 10000 uM GlcN6P” value with glucosamine-6-phosphate [5] is < 1e-05 s⁻¹.

A15C G35U C50U: the “self-cleavage kobs at 40 uM GlcN6P” value with glucosamine-6-phosphate [1] is < 1e-05 s⁻¹. Besides, the “self-cleavage kobs at 2500 uM GlcN6P” value with glucosamine-6-phosphate [4] was < 1e-05 s⁻¹. The “self-cleavage kobs at 10000 uM GlcN6P” value in the data set with glucosamine-6-phosphate [5] was < 1e-05 s⁻¹.

Consider A14C G60C, for which the “self-cleavage kobs at 40 uM GlcN6P” value with glucosamine-6-phosphate [1] was < 1e-05 s⁻¹. The “self-cleavage kobs at 160 uM GlcN6P” value with glucosamine-6-phosphate [2] was < 1e-05 s⁻¹. Also, the “self-cleavage kobs at 2500 uM GlcN6P” value in the data set with glucosamine-6-phosphate [4] was < 1e-05 s⁻¹. Moreover, the “self-cleavage kobs at 10000 uM GlcN6P” value with glucosamine-6-phosphate [5] is < 1e-05 s⁻¹.

Consider G29U U30G U54A, for which the “self-cleavage kobs at 40 uM GlcN6P” value with glucosamine-6-phosphate [1] was determined as 9.91e-05 ± 2.6e-05 s⁻¹. The “self-cleavage kobs at 10000 uM GlcN6P” value in the data set with glucosamine-6-phosphate [5] came to 0.00383 ± 0.00068 s⁻¹.

G37A A42C U47G: the “self-cleavage kobs at 40 uM GlcN6P” value in the data set with glucosamine-6-phosphate [1] is < 1e-05 s⁻¹. For the same variant, the “self-cleavage kobs at 160 uM GlcN6P” value with glucosamine-6-phosphate [2] was < 1e-05 s⁻¹. Further, the “self-cleavage kobs at 640 uM GlcN6P” value in the data set with glucosamine-6-phosphate [3] is < 1e-05 s⁻¹.

Turning to U54G U55G, the “self-cleavage kobs at 40 uM GlcN6P” value with glucosamine-6-phosphate [1] was 0.00108 ± 0.00018 s⁻¹. For the same variant, in the data set with glucosamine-6-phosphate [2], the “self-cleavage kobs at 160 uM GlcN6P” value was determined as 0.00148 ± 0.00028 s⁻¹. In addition, the “self-cleavage kobs at 640 uM GlcN6P” value with glucosamine-6-phosphate [3] was determined as 0.00673 ± 0.0015 s⁻¹. Further, the “self-cleavage kobs at 2500 uM GlcN6P” value in the data set with glucosamine-6-phosphate [4] was determined as 0.0105 ± 0.0029 s⁻¹.

As to C50G A53U G63U U69A, the “self-cleavage kobs at 40 uM GlcN6P” value with glucosamine-6-phosphate [1] amounted to 0.00027 ± 6.1e-05 s⁻¹. In the data set with glucosamine-6-phosphate [2], the “self-cleavage kobs at 160 uM GlcN6P” value was 0.000207 ± 5.6e-05 s⁻¹. Further, the “self-cleavage kobs at 2500 uM GlcN6P” value in the data set with glucosamine-6-phosphate [4] was determined as 0.000121 ± 3.5e-05 s⁻¹. Besides, the “self-cleavage kobs at 10000 uM GlcN6P” value with glucosamine-6-phosphate [5] worked out at 0.000127 ± 2.4e-05 s⁻¹.

C8G C34U U55G: the “self-cleavage kobs at 40 uM GlcN6P” value with glucosamine-6-phosphate [1] was < 1e-05 s⁻¹. Also, the “self-cleavage kobs at 10000 uM GlcN6P” value in the data set with glucosamine-6-phosphate [5] was < 1e-05 s⁻¹.

For A15G G38U U47A C68G, the “self-cleavage kobs at 40 uM GlcN6P” value in the data set with glucosamine-6-phosphate [1] turned out to be 9.09e-05 ± 3.3e-05 s⁻¹.

In the case of G32U G59U C71G, the “self-cleavage kobs at 40 uM GlcN6P” value in the data set with glucosamine-6-phosphate [1] was < 1e-05 s⁻¹. In the data set with glucosamine-6-phosphate [3], the “self-cleavage kobs at 640 uM GlcN6P” value is < 1e-05 s⁻¹.

U31G G43A C61A C68A: the “self-cleavage kobs at 40 uM GlcN6P” value with glucosamine-6-phosphate [1] is < 1e-05 s⁻¹. Also, in the data set with glucosamine-6-phosphate [2], the “self-cleavage kobs at 160 uM GlcN6P” value is < 1e-05 s⁻¹. In addition, the “self-cleavage kobs at 640 uM GlcN6P” value with glucosamine-6-phosphate [3] is < 1e-05 s⁻¹. In addition, the “self-cleavage kobs at 2500 uM GlcN6P” value in the data set with glucosamine-6-phosphate [4] was < 1e-05 s⁻¹.

Take A39C G62U: the “self-cleavage kobs at 40 uM GlcN6P” value in the data set with glucosamine-6-phosphate [1] was < 1e-05 s⁻¹. Further, the “self-cleavage kobs at 2500 uM GlcN6P” value in the data set with glucosamine-6-phosphate [4] was < 1e-05 s⁻¹. Besides, the “self-cleavage kobs at 10000 uM GlcN6P” value with glucosamine-6-phosphate [5] was < 1e-05 s⁻¹.

U31G C61G U65C: the “self-cleavage kobs at 40 uM GlcN6P” value with glucosamine-6-phosphate [1] was < 1e-05 s⁻¹.

For the variant G32U U46C G51U, in the data set with glucosamine-6-phosphate [1], the “self-cleavage kobs at 40 uM GlcN6P” value is < 1e-05 s⁻¹. In addition, the “self-cleavage kobs at 10000 uM GlcN6P” value with glucosamine-6-phosphate [5] was < 1e-05 s⁻¹.

With C8G U54G, the “self-cleavage kobs at 40 uM GlcN6P” value with glucosamine-6-phosphate [1] is < 1e-05 s⁻¹.

As to A36U U55G G63A C71A, the “self-cleavage kobs at 40 uM GlcN6P” value in the data set with glucosamine-6-phosphate [1] was < 1e-05 s⁻¹.

With C11A G43U, in the data set with glucosamine-6-phosphate [1], the “self-cleavage kobs at 40 uM GlcN6P” value was < 1e-05 s⁻¹. Also, in the data set with glucosamine-6-phosphate [2], the “self-cleavage kobs at 160 uM GlcN6P” value was < 1e-05 s⁻¹. The “self-cleavage kobs at 640 uM GlcN6P” value with glucosamine-6-phosphate [3] is < 1e-05 s⁻¹. The “self-cleavage kobs at 10000 uM GlcN6P” value with glucosamine-6-phosphate [5] was < 1e-05 s⁻¹.

U46G U56A: the “self-cleavage kobs at 40 uM GlcN6P” value with glucosamine-6-phosphate [1] came to 5.1e-05 ± 7.3e-06 s⁻¹. The “self-cleavage kobs at 640 uM GlcN6P” value with glucosamine-6-phosphate [3] is 0.000601 ± 0.00017 s⁻¹. In addition, the “self-cleavage kobs at 10000 uM GlcN6P” value in the data set with glucosamine-6-phosphate [5] stood at 0.00224 ± 0.00042 s⁻¹.

G13C G43U: the “self-cleavage kobs at 40 uM GlcN6P” value in the data set with glucosamine-6-phosphate [1] is < 1e-05 s⁻¹. Besides, the “self-cleavage kobs at 640 uM GlcN6P” value with glucosamine-6-phosphate [3] was < 1e-05 s⁻¹. Moreover, the “self-cleavage kobs at 2500 uM GlcN6P” value with glucosamine-6-phosphate [4] was < 1e-05 s⁻¹. Also, the “self-cleavage kobs at 10000 uM GlcN6P” value with glucosamine-6-phosphate [5] was < 1e-05 s⁻¹.

As for C34A G40U G66A, the “self-cleavage kobs at 40 uM GlcN6P” value with glucosamine-6-phosphate [1] was < 1e-05 s⁻¹. Further, the “self-cleavage kobs at 160 uM GlcN6P” value with glucosamine-6-phosphate [2] was < 1e-05 s⁻¹. For the same variant, the “self-cleavage kobs at 10000 uM GlcN6P” value with glucosamine-6-phosphate [5] is < 1e-05 s⁻¹.

Regarding C8A A14G, the “self-cleavage kobs at 40 uM GlcN6P” value in the data set with glucosamine-6-phosphate [1] is < 1e-05 s⁻¹. Also, the “self-cleavage kobs at 640 uM GlcN6P” value with glucosamine-6-phosphate [3] is < 1e-05 s⁻¹.

A33U G59C: in the data set with glucosamine-6-phosphate [1], the “self-cleavage kobs at 40 uM GlcN6P” value was < 1e-05 s⁻¹. Besides, the “self-cleavage kobs at 640 uM GlcN6P” value in the data set with glucosamine-6-phosphate [3] is < 1e-05 s⁻¹. Further, the “self-cleavage kobs at 10000 uM GlcN6P” value in the data set with glucosamine-6-phosphate [5] was < 1e-05 s⁻¹.
